In patent publication US8673848 (Novartis, dated 2014):
Bridges are numbered along the chain shown (N, C = ends). Where no end group is shown, it is not given here. [ ]: non-standard residue; d: D form. The star is where a group is joined. Palmitoyl = CCCCCCCCCCCCCCCC(=O)*; Cha = N[C@@H](CC1CCCCC1)C(=O)O; pGlu = O=C1CC[C@@H](C(=O)O)N1; NHPhenethyl = c1ccc(CCN*)cc1; Lauroyl = CCCCCCCCCCCC(=O)*; Nle = CCCC[C@H](N)C(=O)O; Api = NC1(C(=O)O)CCNCC1; AEEA = NCCOCCOCC(=O)O; Aib = CC(C)(N)C(=O)O; Inp = O=C(O)C1CCNCC1

T1: human APJ receptor (hAPJ) (human, UniProt P35414 1-380)
T1 sequence (looked up): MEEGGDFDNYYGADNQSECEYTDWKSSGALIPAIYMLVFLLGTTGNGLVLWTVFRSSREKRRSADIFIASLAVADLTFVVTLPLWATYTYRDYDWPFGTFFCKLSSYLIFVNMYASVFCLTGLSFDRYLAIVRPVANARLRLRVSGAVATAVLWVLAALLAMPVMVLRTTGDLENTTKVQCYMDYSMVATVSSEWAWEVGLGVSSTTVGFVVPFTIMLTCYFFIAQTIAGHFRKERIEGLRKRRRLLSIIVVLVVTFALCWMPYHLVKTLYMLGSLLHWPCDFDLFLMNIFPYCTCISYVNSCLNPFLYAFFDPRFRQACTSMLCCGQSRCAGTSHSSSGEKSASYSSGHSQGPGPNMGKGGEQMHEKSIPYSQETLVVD

B1: Example 17: H-R-R-P-R-L-C-H-K-G-P-Nle-C-F-OH (peptide)
peptide: H-RRPRLCHKGP[Nle]CF-OH
modifications: disulfide 6-12
SMILES: CCCC[C@@H]1NC(=O)[C@@H]2CCCN2C(=O)CNC(=O)[C@H](CCCCN)NC(=O)[C@H](Cc2c[nH]cn2)NC(=O)[C@@H](NC(=O)[C@H](CC(C)C)NC(=O)[C@H](CCCNC(=N)N)NC(=O)[C@@H]2CCCN2C(=O)[C@H](CCCNC(=N)N)NC(=O)[C@@H](N)CCCNC(=N)N)CSSC[C@@H](C(=O)N[C@@H](Cc2ccccc2)C(=O)O)NC1=O
B2: Example 24: Palmitoyl-O2Oc-Q-R-P-R-L-C-H-K-G-P-Nle-C-F-OH (peptide)
peptide: Palmitoyl-[AEEA]QRPRLCHKGP[Nle]CF-OH
modifications: disulfide 7-13
SMILES: CCCCCCCCCCCCCCCC(=O)NCCOCCOCC(=O)N[C@@H](CCC(N)=O)C(=O)N[C@@H](CCCNC(=N)N)C(=O)N1CCC[C@H]1C(=O)N[C@@H](CCCNC(=N)N)C(=O)N[C@@H](CC(C)C)C(=O)N[C@H]1CSSC[C@@H](C(=O)N[C@@H](Cc2ccccc2)C(=O)O)NC(=O)[C@H](CCCC)NC(=O)[C@@H]2CCCN2C(=O)CNC(=O)[C@H](CCCCN)NC(=O)[C@H](Cc2c[nH]cn2)NC1=O
B3: Example 25: Lauroyl-O2Oc-Q-R-P-R-L-C-H-K-G-P-Nle-C-F-OH (peptide)
peptide: Lauroyl-[AEEA]QRPRLCHKGP[Nle]CF-OH
modifications: disulfide 7-13
SMILES: CCCCCCCCCCCC(=O)NCCOCCOCC(=O)N[C@@H](CCC(N)=O)C(=O)N[C@@H](CCCNC(=N)N)C(=O)N1CCC[C@H]1C(=O)N[C@@H](CCCNC(=N)N)C(=O)N[C@@H](CC(C)C)C(=O)N[C@H]1CSSC[C@@H](C(=O)N[C@@H](Cc2ccccc2)C(=O)O)NC(=O)[C@H](CCCC)NC(=O)[C@@H]2CCCN2C(=O)CNC(=O)[C@H](CCCCN)NC(=O)[C@H](Cc2c[nH]cn2)NC1=O
B4: Example 20: pE-R-P-R-L-C-H-K-Aib-P-Nle-C-F-OH (peptide)
peptide: [pGlu]RPRLCHK[Aib]P[Nle]CF-OH
modifications: disulfide 6-12
SMILES: CCCC[C@@H]1NC(=O)[C@@H]2CCCN2C(=O)C(C)(C)NC(=O)[C@H](CCCCN)NC(=O)[C@H](Cc2c[nH]cn2)NC(=O)[C@@H](NC(=O)[C@H](CC(C)C)NC(=O)[C@H](CCCNC(=N)N)NC(=O)[C@@H]2CCCN2C(=O)[C@H](CCCNC(=N)N)NC(=O)[C@@H]2CCC(=O)N2)CSSC[C@@H](C(=O)N[C@@H](Cc2ccccc2)C(=O)O)NC1=O
B5: Example 16: H-R-P-R-L-C-H-K-G-P-Nle-C-F-OH (peptide)
peptide: H-RPRLCHKGP[Nle]CF-OH
modifications: disulfide 5-11
SMILES: CCCC[C@@H]1NC(=O)[C@@H]2CCCN2C(=O)CNC(=O)[C@H](CCCCN)NC(=O)[C@H](Cc2c[nH]cn2)NC(=O)[C@@H](NC(=O)[C@H](CC(C)C)NC(=O)[C@H](CCCNC(=N)N)NC(=O)[C@@H]2CCCN2C(=O)[C@@H](N)CCCNC(=N)N)CSSC[C@@H](C(=O)N[C@@H](Cc2ccccc2)C(=O)O)NC1=O
B6: Example 18: H-Isn-R-P-R-L-C-H-K-G-P-Nle-C-F-OH (peptide)
peptide: H-[Inp]RPRLCHKGP[Nle]CF-OH
modifications: disulfide 6-12
SMILES: CCCC[C@@H]1NC(=O)[C@@H]2CCCN2C(=O)CNC(=O)[C@H](CCCCN)NC(=O)[C@H](Cc2c[nH]cn2)NC(=O)[C@@H](NC(=O)[C@H](CC(C)C)NC(=O)[C@H](CCCNC(=N)N)NC(=O)[C@@H]2CCCN2C(=O)[C@H](CCCNC(=N)N)NC(=O)C2CCNCC2)CSSC[C@@H](C(=O)N[C@@H](Cc2ccccc2)C(=O)O)NC1=O
B7: Example 1: pE-R-P-R-L-K-H-F-G-P-Nle-D-Phenethylamine (peptide)
peptide: [pGlu]RPRLKHFGP[Nle]D-NHPhenethyl
modifications: lactam 6-12
SMILES: CCCC[C@@H]1NC(=O)[C@@H]2CCCN2C(=O)CNC(=O)[C@H](Cc2ccccc2)NC(=O)[C@H](Cc2c[nH]cn2)NC(=O)[C@@H](NC(=O)[C@H](CC(C)C)NC(=O)[C@H](CCCNC(=N)N)NC(=O)[C@@H]2CCCN2C(=O)[C@H](CCCNC(=N)N)NC(=O)[C@@H]2CCC(=O)N2)CCCCNC(=O)C[C@@H](C(=O)NCCc2ccccc2)NC1=O
B8: Example 11: p-Isn-R-P-R-L-C-Aib-K-G-P-Nle-C-f-OH (peptide)
peptide: [Inp]RPRLC[Aib]KGP[Nle]C[dF]-OH
modifications: disulfide 6-12; N-terminus assumed
SMILES: CCCC[C@@H]1NC(=O)[C@@H]2CCCN2C(=O)CNC(=O)[C@H](CCCCN)NC(=O)C(C)(C)NC(=O)[C@@H](NC(=O)[C@H](CC(C)C)NC(=O)[C@H](CCCNC(=N)N)NC(=O)[C@@H]2CCCN2C(=O)[C@H](CCCNC(=N)N)NC(=O)C2CCNCC2)CSSC[C@@H](C(=O)N[C@H](Cc2ccccc2)C(=O)O)NC1=O
B9: Example 14: pE-R-P-R-Cha-C-H-K-G-P-Cha-C-F-OH (peptide)
peptide: [pGlu]RPR[Cha]CHKGP[Cha]CF-OH
modifications: disulfide 6-12
SMILES: N=C(N)NCCC[C@H](NC(=O)[C@@H]1CCCN1C(=O)[C@H](CCCNC(=N)N)NC(=O)[C@@H]1CCC(=O)N1)C(=O)N[C@@H](CC1CCCCC1)C(=O)N[C@H]1CSSC[C@@H](C(=O)N[C@@H](Cc2ccccc2)C(=O)O)NC(=O)[C@H](CC2CCCCC2)NC(=O)[C@@H]2CCCN2C(=O)CNC(=O)[C@H](CCCCN)NC(=O)[C@H](Cc2c[nH]cn2)NC1=O
B10: Example 15: pE-R-P-R-L-C-F-K-G-P-Nle-C-F-OH (peptide)
peptide: [pGlu]RPRLCFKGP[Nle]CF-OH
modifications: disulfide 6-12
SMILES: CCCC[C@@H]1NC(=O)[C@@H]2CCCN2C(=O)CNC(=O)[C@H](CCCCN)NC(=O)[C@H](Cc2ccccc2)NC(=O)[C@@H](NC(=O)[C@H](CC(C)C)NC(=O)[C@H](CCCNC(=N)N)NC(=O)[C@@H]2CCCN2C(=O)[C@H](CCCNC(=N)N)NC(=O)[C@@H]2CCC(=O)N2)CSSC[C@@H](C(=O)N[C@@H](Cc2ccccc2)C(=O)O)NC1=O
B11: Example 23: pE-R-P-R-L-C-K(Palmitoyl)-K-G-P-Nle-C-F-OH (peptide)
peptide: [pGlu]RPRLCK(Palmitoyl)KGP[Nle]CF-OH
modifications: disulfide 6-12
SMILES: CCCCCCCCCCCCCCCC(=O)NCCCC[C@@H]1NC(=O)[C@@H](NC(=O)[C@H](CC(C)C)NC(=O)[C@H](CCCNC(=N)N)NC(=O)[C@@H]2CCCN2C(=O)[C@H](CCCNC(=N)N)NC(=O)[C@@H]2CCC(=O)N2)CSSC[C@@H](C(=O)N[C@@H](Cc2ccccc2)C(=O)O)NC(=O)[C@H](CCCC)NC(=O)[C@@H]2CCCN2C(=O)CNC(=O)[C@H](CCCCN)NC1=O
B12: Example 21: pE-R-P-R-L-C-H-(4-NH-Isn)-G-P-Nle-C-F-OH (peptide)
peptide: [pGlu]RPRLCH[Api]GP[Nle]CF-OH
modifications: disulfide 6-12
SMILES: CCCC[C@@H]1NC(=O)[C@@H]2CCCN2C(=O)CNC(=O)C2(CCNCC2)NC(=O)[C@H](Cc2c[nH]cn2)NC(=O)[C@@H](NC(=O)[C@H](CC(C)C)NC(=O)[C@H](CCCNC(=N)N)NC(=O)[C@@H]2CCCN2C(=O)[C@H](CCCNC(=N)N)NC(=O)[C@@H]2CCC(=O)N2)CSSC[C@@H](C(=O)N[C@@H](Cc2ccccc2)C(=O)O)NC1=O
B13: Example 22: pE-R-P-R-L-C-H-K-G-P-Nle-C-K(Palmitoyl)-OH (peptide)
peptide: [pGlu]RPRLCHKGP[Nle]CK(Palmitoyl)-OH
modifications: disulfide 6-12
SMILES: CCCCCCCCCCCCCCCC(=O)NCCCC[C@H](NC(=O)[C@@H]1CSSC[C@H](NC(=O)[C@H](CC(C)C)NC(=O)[C@H](CCCNC(=N)N)NC(=O)[C@@H]2CCCN2C(=O)[C@H](CCCNC(=N)N)NC(=O)[C@@H]2CCC(=O)N2)C(=O)N[C@@H](Cc2c[nH]cn2)C(=O)N[C@@H](CCCCN)C(=O)NCC(=O)N2CCC[C@H]2C(=O)N[C@@H](CCCC)C(=O)N1)C(=O)O
B14: Example 10: pE-R-P-R-L-C-Aib-K-G-P-Nle-C-f-OH (peptide)
peptide: [pGlu]RPRLC[Aib]KGP[Nle]C[dF]-OH
modifications: disulfide 6-12
SMILES: CCCC[C@@H]1NC(=O)[C@@H]2CCCN2C(=O)CNC(=O)[C@H](CCCCN)NC(=O)C(C)(C)NC(=O)[C@@H](NC(=O)[C@H](CC(C)C)NC(=O)[C@H](CCCNC(=N)N)NC(=O)[C@@H]2CCCN2C(=O)[C@H](CCCNC(=N)N)NC(=O)[C@@H]2CCC(=O)N2)CSSC[C@@H](C(=O)N[C@H](Cc2ccccc2)C(=O)O)NC1=O
B15: Example 2: pE-R-P-R-L-K-H-F-G-P-Nle-E-Phenethylamine (peptide)
peptide: [pGlu]RPRLKHFGP[Nle]E
modifications: lactam 6-12 (inferred); not fully specified (C-terminus); printed as pE-R-P-R-L-K-H-F-G-P-Nle-E-Phenethylamine
B16: Example 19: pE-R-P-R-L-C-H-F-G-P-Nle-C-Phenethylamine (peptide)
peptide: [pGlu]RPRLCHFGP[Nle]C-NHPhenethyl
modifications: disulfide 6-12
SMILES: CCCC[C@@H]1NC(=O)[C@@H]2CCCN2C(=O)CNC(=O)[C@H](Cc2ccccc2)NC(=O)[C@H](Cc2c[nH]cn2)NC(=O)[C@@H](NC(=O)[C@H](CC(C)C)NC(=O)[C@H](CCCNC(=N)N)NC(=O)[C@@H]2CCCN2C(=O)[C@H](CCCNC(=N)N)NC(=O)[C@@H]2CCC(=O)N2)CSSC[C@@H](C(=O)NCCc2ccccc2)NC1=O
B17: Example 13: pE-R-P-R-L-C-H-K-G-P-Nle-C-f-OH (peptide)
peptide: [pGlu]RPRLCHKGP[Nle]C[dF]-OH
modifications: disulfide 6-12
SMILES: CCCC[C@@H]1NC(=O)[C@@H]2CCCN2C(=O)CNC(=O)[C@H](CCCCN)NC(=O)[C@H](Cc2c[nH]cn2)NC(=O)[C@@H](NC(=O)[C@H](CC(C)C)NC(=O)[C@H](CCCNC(=N)N)NC(=O)[C@@H]2CCCN2C(=O)[C@H](CCCNC(=N)N)NC(=O)[C@@H]2CCC(=O)N2)CSSC[C@@H](C(=O)N[C@H](Cc2ccccc2)C(=O)O)NC1=O

molecular target: T1, human APJ receptor (hAPJ); assay: cell-based or functional assay

hAPJ Ca2+ Flux EC50 [nM] | Binder
3.29 | B1
32.6 | B2
24.5 | B3
173 | B4
1.43 | B5
1.62 | B6
90.1 | B7
3.52 | B8
8.83 | B9
2.07 | [pGlu]RPRLCHKGP[Nle]C-NHPhenethyl (disulfide 6-12) [Example 12: pE-R-P-R-L-C-H-K-G-P-Nle-C-Phenethylamine]
3.53 | B10
52.4 | B11
75.8 | B12
42 | B13
2.54 | B14
133 | B15
8.46 | B16
2.26 | B17
